From PMC4914113, “Another look at the mechanism involving trimeric dUTPases in Staphylococcus aureus pathogenicity island induction involves novel players in the party” (Nucleic Acids Research, 2016)

How the values were obtained:
[1] = molecular target: Dut80α^ΔVI, Dut80α lacking motif VI (Staphylococcus aureus phage 80α); test: BLI; as a1, buffer STL supplemented with 0.5 mM dUPNPP (baselines and dissociation without nucleotide); 1:1 model
[2] = molecular target: Dut80α D81A D110C S168C (Staphylococcus aureus phage 80α); test: as above
[3] = molecular target: Dut80α^G164S (Staphylococcus aureus phage 80α); test: as above
[4] = molecular target: Dutϕ11^WT, wild-type dUTPase of phage ϕ11 (Staphylococcus aureus phage ϕ11); test: as above
[5] = molecular target: Dutϕ11^ΔV, Dutϕ11 motif V deletion mutant (Staphylococcus aureus phage ϕ11); test: as above
[6] = molecular target: Dut80α^D81A (Staphylococcus aureus phage 80α); test: as above
[7] = molecular target: Dutϕ11^ΔVI, Dutϕ11 lacking motif VI (Staphylococcus aureus phage ϕ11); test: as above
[8] = molecular target: Dut80α^ΔV, Dut80α motif V deletion mutant (Staphylococcus aureus phage 80α); test: as above
[9] = molecular target: Dut80α^WT, wild-type dUTPase of phage 80α (Staphylococcus aureus phage 80α); test: as above
[10] = molecular target: Dutϕ11^ΔV-ΔVI (Staphylococcus aureus phage ϕ11); test: as above
[11] = molecular target: Dut80α^F165A (Staphylococcus aureus phage 80α); test: as above
[12] = molecular target: Dutϕ11^(ΔVI F164A) (Staphylococcus aureus phage ϕ11); test: as above
[13] = molecular target: Dut80α^Y84I (Staphylococcus aureus phage 80α); test: as above
[14] = molecular target: Dut80α D81A D110C S168C (Staphylococcus aureus phage 80α); test: BLI; as a1 but non-reducing buffer (400 mM NaCl, 75 mM HEPES pH 7.5, 5 mM MgCl2) with 0.5 mM dUPNPP; 1:1 model
[15] = molecular target: Dut80α D81A D110C S168C (Staphylococcus aureus phage 80α); test: BLI; as a1 but non-reducing buffer (400 mM NaCl, 75 mM HEPES pH 7.5, 5 mM MgCl2); no nucleotide; 1:1 model
[16] = molecular target: Dutϕ11^ΔVI, Dutϕ11 lacking motif VI (Staphylococcus aureus phage ϕ11); test: BLI; BLItz; His-tagged Dut immobilised at 1 μM on Ni-NTA biosensors, Stl in solution (at least five dilutions, 4 to 0.062 μM); buffer STL (400 mM NaCl, 75 mM HEPES pH 7.5, 5 mM MgCl2, 2 mM DTT); no nucleotide; 1:1 model
[17] = molecular target: Dut80α^ΔV, Dut80α motif V deletion mutant (Staphylococcus aureus phage 80α); test: as above
[18] = molecular target: Dutϕ11^ΔV-ΔVI (Staphylococcus aureus phage ϕ11); test: as above
[19] = molecular target: Dutϕ11^WT, wild-type dUTPase of phage ϕ11 (Staphylococcus aureus phage ϕ11); test: BLI; as a1, buffer STL supplemented with 5 mM dUMP (baselines and dissociation without nucleotide); 1:1 model
[20] = molecular target: Dut80α^ΔV, Dut80α motif V deletion mutant (Staphylococcus aureus phage 80α); test: as above
[21] = molecular target: Dut80α^WT, wild-type dUTPase of phage 80α (Staphylococcus aureus phage 80α); test: as above

“Stl repressor from SaPIbov1 (natural protein)” was tested, and the Kd [1] was > 1000 nM, the Kd [2] was 192 nM and the koff [2] was 0.005 s⁻¹. For the same substance, the kon [2] was 26000 M⁻¹ s⁻¹, the Kd [3] was > 1000 nM and the Kd [4] was 300 nM. It also gave a koff [4] of 0.0006 s⁻¹, a kon [4] of 2000 M⁻¹ s⁻¹ and a Kd [5] of 3.84 nM. The koff [5] was 5e-05 s⁻¹, the kon [5] was 13000 M⁻¹ s⁻¹ and the Kd [6] was > 1000 nM. For the same substance, the Kd [7] was 12.7 nM, the koff [7] was 0.00014 s⁻¹ and the kon [7] was 11000 M⁻¹ s⁻¹. It also gave a Kd [8] of 525 nM, a koff [8] of 0.0042 s⁻¹ and a kon [8] of 8000 M⁻¹ s⁻¹. It also gave a Kd [9] of 466 nM, a koff [9] of 0.0014 s⁻¹ and a kon [9] of 3000 M⁻¹ s⁻¹. It also gave a Kd [10] of 200 nM, a koff [10] of 0.0019 s⁻¹ and a kon [10] of 9500 M⁻¹ s⁻¹. The Kd [11] was > 1000 nM, the Kd [12] was 378 nM and the koff [12] was 0.0031 s⁻¹. The kon [12] was 8200 M⁻¹ s⁻¹, the Kd [13] was > 1000 nM and the Kd [14] was 19.3 nM. It also gave a koff [14] of 0.0011 s⁻¹, a kon [14] of 57000 M⁻¹ s⁻¹ and a Kd [15] of 6 nM. For the same substance, the koff [15] was 0.00085 s⁻¹, the kon [15] was 140000 M⁻¹ s⁻¹ and the Kd [16] was 11.4 nM. For the same substance, the koff [16] was 0.00024 s⁻¹, the kon [16] was 21000 M⁻¹ s⁻¹ and the Kd [17] was 530 nM. The koff [17] was 0.009 s⁻¹, the kon [17] was 17000 M⁻¹ s⁻¹ and the Kd [18] was 111 nM. It also gave a koff [18] of 0.0019 s⁻¹, a kon [18] of 17000 M⁻¹ s⁻¹ and a Kd [19] of 1.93 nM. For the same substance, the koff [19] was 5.8e-05 s⁻¹, the kon [19] was 30000 M⁻¹ s⁻¹ and the Kd [20] was 602 nM. For the same substance, the koff [20] was 0.005 s⁻¹, the kon [20] was 8300 M⁻¹ s⁻¹ and the Kd [21] was 23.5 nM. For the same substance, the koff [21] was 0.0008 s⁻¹ and the kon [21] was 34000 M⁻¹ s⁻¹.
